Laboratory results published in the Human Domainome abundance scans (Beltran et al. 2025).
± gives the uncertainty stated by the source.

B1: Ankyrin-3, residues 4094 to 4171; numbered along this chain, Q12955 (parent)
chain: MAIVADHLGLSWTELARELNFSVDEINQIRVENPNSLISQSFMLLKKWVTRDGKNATTDALTSVLTKINRIDIVTLLE

Variants of: B1
Test: abundance fitness (aPCA) (normalised: wild type 0, dead -1); higher = more abundant; growth selection in yeast, the domain comes from the species named
Conditions: Homo sapiens

Point of comparison: V64G, abundance fitness -0.05 ± 0.08. Against it:
- I73W — lower, -0.793 ± 0.15
- N69S — lower, -0.29 ± 0.057
- N69C — lower, -0.549 ± 0.23
- N69P — lower, -0.811 ± 0.16
- N69A — lower, -0.339 ± 0.074
- N69V — lower, -0.928 ± 0.14
- N69R — lower, -0.224 ± 0.067
- N69K — within error, -0.104 ± 0.14
- N69Y — lower, -0.699 ± 0.12
- N69H — within error, -0.308 ± 0.18
- N69G — within error, 0.073 ± 0.047
- N69L — lower, -0.679 ± 0.1
- N69W — lower, -1.01 ± 0.44
- N69M — lower, -0.61 ± 0.23
- N69D — within error, -0.178 ± 0.12
- N69Q — within error, -0.061 ± 0.12
- N69E — within error, -0.032 ± 0.12
- R70G — lower, -1 ± 0.14
- R70M — lower, -0.774 ± 0.33
- R70A — lower, -0.918 ± 0.19
- R70V — lower, -0.876 ± 0.2
- R70D — lower, -0.753 ± 0.25
- R70L — lower, -0.82 ± 0.13
- R70P — lower, -0.74 ± 0.29
- R70K — lower, -0.393 ± 0.24
- R70Q — lower, -0.908 ± 0.23
- R70W — lower, -0.795 ± 0.11
- R70C — lower, -0.817 ± 0.2
- I71V — within error, 0.015 ± 0.055
- I71L — within error, 0.081 ± 0.053
- I71E — within error, -0.066 ± 0.095
- I71Y — within error, 0.082 ± 0.19
- I71D — higher, 0.307 ± 0.22
- I71M — within error, 0.039 ± 0.062
- I71N — within error, -0.155 ± 0.22
- I71F — within error, 0.066 ± 0.12
- I71H — within error, -0.198 ± 0.12
- I71S — within error, -0.048 ± 0.076
- I71C — within error, -0.167 ± 0.15
- I71Q — within error, 0.136 ± 0.14
- I71W — within error, -0.029 ± 0.077
- I71A — within error, -0.075 ± 0.071
- I71G — higher, 0.085 ± 0.049
- I71T — within error, -0.016 ± 0.13
- I71R — within error, -0.036 ± 0.045
- I71P — within error, -0.046 ± 0.063
- I71K — within error, 0.057 ± 0.13
- V64E — within error, 0.001 ± 0.15
- V64K — within error, -0.333 ± 0.47
- V64P — within error, 0.037 ± 0.085
- V64A — within error, -0.081 ± 0.078
- V64D — lower, -0.858 ± 0.25
- V64H — within error, 0.132 ± 0.12
- V64S — within error, -0.06 ± 0.089
- V64L — higher, 0.111 ± 0.07
- V64M — within error, 0.064 ± 0.28
- V64F — higher, 0.111 ± 0.052
- V64R — lower, -0.298 ± 0.12
- V64W — lower, -0.644 ± 0.26
- V64Y — within error, -0.166 ± 0.15
- V64Q — within error, 0.064 ± 0.17
- V64T — within error, -0.087 ± 0.15
- V64C — within error, 0.05 ± 0.12
- V64N — within error, -0.236 ± 0.35
- V74R — lower, -0.827 ± 0.12
- V74L — lower, -0.399 ± 0.074
- V74K — within error, -0.255 ± 0.18
- V74T — within error, -0.142 ± 0.099
- V74E — lower, -0.888 ± 0.16
- V74P — lower, -0.86 ± 0.26
- V74D — lower, -0.944 ± 0.38
- V74G — lower, -0.651 ± 0.11
- V74Y — lower, -0.55 ± 0.35
- V74S — lower, -0.656 ± 0.12
- V74N — lower, -0.777 ± 0.33
- V74F — lower, -1.08 ± 0.37
- V74M — lower, -0.749 ± 0.41
- L65G — lower, -0.825 ± 0.11
- L65A — lower, -1.14 ± 0.19
- L65H — lower, -0.973 ± 0.2
- L65I — lower, -0.847 ± 0.32
- L65E — lower, -0.824 ± 0.15
- L65M — lower, -0.651 ± 0.12
- L65F — lower, -0.752 ± 0.29
- L65D — within error, 0.076 ± 0.19
- L65N — lower, -0.426 ± 0.25
- L65Y — lower, -0.737 ± 0.23
- L65V — lower, -0.779 ± 0.11
- L65P — lower, -0.701 ± 0.099
- L65W — lower, -0.901 ± 0.16
- L65Q — lower, -1.05 ± 0.27
- L65K — lower, -0.528 ± 0.21
- L65R — lower, -0.902 ± 0.07
- L65S — lower, -0.884 ± 0.13
- L65C — lower, -0.505 ± 0.091
- D72E — lower, -0.567 ± 0.17
- D72L — lower, -0.718 ± 0.11
- D72R — lower, -0.784 ± 0.11
- D72G — lower, -0.878 ± 0.14
- D72A — lower, -0.739 ± 0.14
- D72S — lower, -0.855 ± 0.16
- D72C — lower, -0.958 ± 0.38
- D72W — lower, -0.894 ± 0.32
- D72M — lower, -0.738 ± 0.33
- D72V — lower, -0.644 ± 0.11
- D72Q — lower, -0.702 ± 0.3
- D72P — lower, -0.396 ± 0.12
- S63T — within error, 0.023 ± 0.066
- S63P — within error, -0.137 ± 0.084
- S63V — within error, -0.061 ± 0.053
- S63K — within error, 0.002 ± 0.097
- S63R — within error, -0.004 ± 0.059
- S63N — within error, -0.106 ± 0.24
- S63W — lower, -0.405 ± 0.086
- S63I — within error, -0.287 ± 0.27
- S63M — within error, -0.046 ± 0.064
- S63Q — within error, -0.012 ± 0.079
- S63Y — within error, -0.003 ± 0.13
- E78Q — lower, -0.397 ± 0.2
- E78H — within error, -0.026 ± 0.085
- E78W — lower, -0.649 ± 0.36
- E78F — within error, -0.13 ± 0.1
- E78M — within error, -0.211 ± 0.11
- E78T — within error, -0.063 ± 0.032
- E78L — lower, -0.326 ± 0.088
- E78I — lower, -0.219 ± 0.041
- E78Y — within error, -0.159 ± 0.14
- E78K — within error, -0.025 ± 0.085
- E78S — within error, -0.089 ± 0.065
- E78G — within error, 0.077 ± 0.13
- E78N — within error, -0.014 ± 0.09
- E78V — lower, -0.206 ± 0.075
- E78C — within error, -0.275 ± 0.17
- E78D — within error, -0.001 ± 0.072
- I68T — lower, -0.987 ± 0.31
- I68V — lower, -0.284 ± 0.065
- I68L — lower, -0.219 ± 0.057
- I68R — lower, -0.965 ± 0.12
- I68W — lower, -0.878 ± 0.28
- I68P — lower, -0.37 ± 0.12
- I68C — lower, -0.402 ± 0.17
- I68F — lower, -0.963 ± 0.34
- I68G — lower, -0.916 ± 0.15
- I68M — lower, -0.244 ± 0.097
- I68S — lower, -0.935 ± 0.21
- I68A — lower, -0.868 ± 0.13
- I68Q — lower, -0.806 ± 0.24
- I68E — lower, -0.964 ± 0.34
- I68K — lower, -0.606 ± 0.25
- T66Q — higher, 0.118 ± 0.068
- T66P — lower, -0.535 ± 0.064
- T66A — within error, -0.14 ± 0.057
- T66F — within error, -0.052 ± 0.081
- T66R — within error, -0.07 ± 0.051
- T66G — within error, -0.126 ± 0.046
- T66S — within error, -0.173 ± 0.051
- T66C — lower, -0.21 ± 0.078
- T66M — within error, -0.054 ± 0.076
- T66K — within error, -0.1 ± 0.12
- T66V — within error, 0.018 ± 0.045
- T66W — within error, -0.173 ± 0.053
- T66I — within error, -0.088 ± 0.07
- T66E — within error, -0.182 ± 0.16
- T66L — within error, -0.102 ± 0.05
- T66H — within error, -0.013 ± 0.092
- T66N — within error, -0.112 ± 0.12
